Assay results: patent US20250043020A1

Assays:
[1] = target: human Ankyrin Repeat Domain-Containing Protein 30A (NY-BR-1), full-length, on cells (human) (UniProt Q9BXX3); assay: flow cytometry on NY-BR-1 transfected Bosc23 cells; PE anti-mouse Fcγ subclass I secondary
[2] = target: human Ankyrin Repeat Domain-Containing Protein 30B (NY-BR-1.1), full-length, on cells (human) (UniProt Q9BXX2); assay: flow cytometry on NY-BR-1.1 transfected Bosc23 cells; PE anti-mouse Fcγ subclass I secondary
UniProt Q9BXX2, sequence (Q9BXX2 whole entry, the tested form may be a part): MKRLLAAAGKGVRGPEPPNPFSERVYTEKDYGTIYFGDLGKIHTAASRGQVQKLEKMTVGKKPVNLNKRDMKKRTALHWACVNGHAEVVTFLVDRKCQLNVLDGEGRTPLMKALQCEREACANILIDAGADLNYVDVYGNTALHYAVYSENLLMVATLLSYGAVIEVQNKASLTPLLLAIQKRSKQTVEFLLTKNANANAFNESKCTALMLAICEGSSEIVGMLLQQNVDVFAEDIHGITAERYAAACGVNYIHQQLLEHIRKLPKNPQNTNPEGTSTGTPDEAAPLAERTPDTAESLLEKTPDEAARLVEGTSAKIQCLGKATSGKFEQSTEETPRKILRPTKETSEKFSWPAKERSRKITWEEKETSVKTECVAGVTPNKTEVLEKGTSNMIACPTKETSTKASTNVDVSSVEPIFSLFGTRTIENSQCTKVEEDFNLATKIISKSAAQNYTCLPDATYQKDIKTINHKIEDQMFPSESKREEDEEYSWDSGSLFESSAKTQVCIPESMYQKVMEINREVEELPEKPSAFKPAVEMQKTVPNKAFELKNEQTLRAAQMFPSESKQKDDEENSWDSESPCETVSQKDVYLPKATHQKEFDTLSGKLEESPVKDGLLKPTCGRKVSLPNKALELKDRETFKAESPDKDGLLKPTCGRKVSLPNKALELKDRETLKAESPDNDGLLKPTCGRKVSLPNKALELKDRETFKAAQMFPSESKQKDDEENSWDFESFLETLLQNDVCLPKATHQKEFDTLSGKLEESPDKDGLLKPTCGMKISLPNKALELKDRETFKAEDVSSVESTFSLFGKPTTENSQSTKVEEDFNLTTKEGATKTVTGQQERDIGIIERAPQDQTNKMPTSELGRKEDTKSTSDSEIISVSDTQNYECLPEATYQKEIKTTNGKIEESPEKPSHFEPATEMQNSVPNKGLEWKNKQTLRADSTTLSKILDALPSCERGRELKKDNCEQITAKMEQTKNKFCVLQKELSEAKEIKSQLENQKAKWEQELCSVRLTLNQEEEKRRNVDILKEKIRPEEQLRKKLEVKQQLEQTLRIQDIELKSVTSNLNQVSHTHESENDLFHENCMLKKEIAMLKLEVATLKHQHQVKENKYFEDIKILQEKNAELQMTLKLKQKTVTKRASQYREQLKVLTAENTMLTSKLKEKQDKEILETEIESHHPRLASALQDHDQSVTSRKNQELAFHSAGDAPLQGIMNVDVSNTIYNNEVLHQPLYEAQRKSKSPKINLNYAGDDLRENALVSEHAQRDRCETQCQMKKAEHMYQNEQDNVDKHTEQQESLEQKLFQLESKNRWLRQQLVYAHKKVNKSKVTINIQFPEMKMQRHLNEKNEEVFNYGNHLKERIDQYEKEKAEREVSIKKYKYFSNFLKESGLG

UniProt Q9BXX3, sequence (Q9BXX3 whole entry, the tested form may be a part): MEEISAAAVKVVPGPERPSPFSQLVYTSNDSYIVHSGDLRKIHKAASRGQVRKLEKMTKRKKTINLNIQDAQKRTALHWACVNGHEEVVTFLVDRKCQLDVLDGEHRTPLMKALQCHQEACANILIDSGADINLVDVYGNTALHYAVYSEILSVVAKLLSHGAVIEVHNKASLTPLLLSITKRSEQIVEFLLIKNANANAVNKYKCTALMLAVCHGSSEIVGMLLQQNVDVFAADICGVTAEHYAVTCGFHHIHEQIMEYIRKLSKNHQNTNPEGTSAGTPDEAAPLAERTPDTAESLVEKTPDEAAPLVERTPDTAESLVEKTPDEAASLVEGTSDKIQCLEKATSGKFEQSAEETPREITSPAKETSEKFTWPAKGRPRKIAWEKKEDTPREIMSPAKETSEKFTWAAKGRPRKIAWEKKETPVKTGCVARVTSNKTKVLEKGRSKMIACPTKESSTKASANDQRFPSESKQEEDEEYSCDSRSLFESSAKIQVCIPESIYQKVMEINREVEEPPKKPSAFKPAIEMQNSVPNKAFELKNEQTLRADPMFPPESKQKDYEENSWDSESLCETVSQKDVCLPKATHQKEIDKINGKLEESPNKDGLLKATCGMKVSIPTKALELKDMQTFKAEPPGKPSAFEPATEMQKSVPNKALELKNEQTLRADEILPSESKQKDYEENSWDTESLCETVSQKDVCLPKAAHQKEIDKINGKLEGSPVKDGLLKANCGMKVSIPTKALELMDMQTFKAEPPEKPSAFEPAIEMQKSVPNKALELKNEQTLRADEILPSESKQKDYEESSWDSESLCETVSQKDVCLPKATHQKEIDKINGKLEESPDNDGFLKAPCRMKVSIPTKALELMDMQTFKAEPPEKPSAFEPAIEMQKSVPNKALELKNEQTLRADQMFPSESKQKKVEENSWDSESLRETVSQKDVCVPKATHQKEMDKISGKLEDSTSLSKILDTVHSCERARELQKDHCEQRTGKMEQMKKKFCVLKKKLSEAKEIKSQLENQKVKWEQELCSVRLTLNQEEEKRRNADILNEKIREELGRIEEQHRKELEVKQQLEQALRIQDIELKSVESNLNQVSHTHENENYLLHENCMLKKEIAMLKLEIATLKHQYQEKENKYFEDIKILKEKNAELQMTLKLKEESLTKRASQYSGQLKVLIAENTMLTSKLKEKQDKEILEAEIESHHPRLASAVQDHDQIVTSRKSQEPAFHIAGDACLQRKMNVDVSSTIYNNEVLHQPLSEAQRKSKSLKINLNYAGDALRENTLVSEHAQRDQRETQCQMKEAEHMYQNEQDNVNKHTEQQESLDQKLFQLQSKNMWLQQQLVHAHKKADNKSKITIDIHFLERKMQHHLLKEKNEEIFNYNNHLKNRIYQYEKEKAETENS

MFI [1]: 74
MFI [2]: 90
Substance: isotype control (Example 1, flow cytometry with full-length murine antibodies) (antibody)
